# B1: Probe5 (dsDNA)
# DNA 1: TAATTAGGTATCTCTGCTCGAGTTCTTTTG
# DNA 2: CAAAAGAACTCGAGCAGAGATACCTAATTA
# B2: Probe1 (dsDNA)
# DNA 1: CTCTCTCTCTCTCTCTCTCTGTTTGCGCCAAAACA
# DNA 2: TGTTTTGGCGCAAACAGAGAGAGAGAGAGAGAGAG
# B3: Probe4 (dsDNA)
# DNA 1: ATGACCCCCTTTTGCTCTGCTCTGTCTTTCTAGT
# DNA 2: ACTAGAAAGACAGAGCAGAGCAAAAGGGGGTCAT
# B4: Probe3 (dsDNA)
# DNA 1: GTCTTATTTTTCTCTGTTTTCTTTTTTGGTATT
# DNA 2: AATACCAAAAAAGAAAACAGAGAAAAATAAGAC
# B5: Probe2 (dsDNA)
# DNA 1: TTTCTCATGAACCCTCTGCTTTCTCATCTTGGGT
# DNA 2: ACCCAAGATGAGAAAGCAGAGGGTTCATGAGAAA
# Biological target: RrJMJ12-C (Rosa rugosa, UniProt A0A2P6P5A5 1371-1493)
# Sequence (A0A2P6P5A5 entry or part of it): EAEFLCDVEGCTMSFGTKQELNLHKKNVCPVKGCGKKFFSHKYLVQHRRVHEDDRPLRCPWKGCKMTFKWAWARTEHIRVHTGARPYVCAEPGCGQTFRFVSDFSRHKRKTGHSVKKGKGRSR
# Assay: EMSA; unlabeled cold probe control; EMSA/Gel-Shift Kit (Beyotime) binding buffer, 30 min at 24 C; salt and pH not stated
# Settings: protein: recombinant; tags: GST (pGEX4T-1); label: biotin; blunt
row,Binder,binding result
1,B1,binds
2,B2,binds
3,B3,binds
4,B4,binds
5,B5,binds

# — paper PMC12946505, “RrMYB2 Regulates Drought Stress via RrJMJ12‐Dependent Epigenetic Modification in Rosa rugosa”
